# B1: Native HCPB: purified recombinant native human pancreatic carboxypeptidase B (protein, UniProt P15086 111-417, looked up)
# Carboxypeptidase B: ATGHSYEKYNKWETIEAWTQQVATENPALISRSVIGTTFEGRAIYLLKVGKAGQNKPAIFMDCGFHAREWISPAFCQWFVREAVRTYGREIQVTELLDKLDFYVLPVLNIDGYIYTWTKSRFWRKTRSTHTGSSCIGTDPNRNFDAGWCEIGASRNPCDETYCGPAAESEKETKALADFIRNKLSSIKAYLTIHSYSQMMIYPYSYAYKLGENNAELNALAKATVKELASLHGTKYTYGPGATTIYPAAGGSDDWAYDQGIRYSFTFELRDTGRYGFLLPESQIRATCEETFLAIKYVASYVLEHLY
# B2: HCPB: mature HCPB in supernatant of COS-7 cells co-transfected with preHCPB and prepro sequence plasmids (protein, UniProt P15086 111-417, looked up)
# Carboxypeptidase B: B1 Carboxypeptidase B
# B3: proHCPB: proHCPB expressed from COS-7 cells (plasmid pMF49), activated with trypsin (protein, UniProt P15086 16-417, looked up)
# pro-form: HHGGEHFEGEKVFRVNVEDENHINIIRELASTTQIDFWKPDSVTQIKPHSTVDFRVKAEDTVTVENVLKQNELQYKVLISNLRNVVEAQFDSRVRATGHSYEKYNKWETIEAWTQQVATENPALISRSVIGTTFEGRAIYLLKVGKAGQNKPAIFMDCGFHAREWISPAFCQWFVREAVRTYGREIQVTELLDKLDFYVLPVLNIDGYIYTWTKSRFWRKTRSTHTGSSCIGTDPNRNFDAGWCEIGASRNPCDETYCGPAAESEKETKALADFIRNKLSSIKAYLTIHSYSQMMIYPYSYAYKLGENNAELNALAKATVKELASLHGTKYTYGPGATTIYPAAGGSDDWAYDQGIRYSFTFELRDTGRYGFLLPESQIRATCEETFLAIKYVASYVLEHLY
# modifications: pro-form
# Tests used:
# [1] = Conversion of Hipp-Asp to hippuric acid by mutant and native human CPB, HPLC assay (Example 6); assay type: biochemical; conditions: 5 hr at 37° C.; 4 μg enzyme; 0.5 mM substrate
# Procedure: (§1) Purified mutants of human CPB (D253K and D253R; Examples 1-3) and native human CPB, produced as described in Reference Example 12, were assayed for their ability to convert either hippuryl-L-aspartic acid (Hipp-Asp—Reference Example 2), hippuryl-L-glutamic acid (Hipp-Glu—Reference Example 1) or hippuryl-L-arginine (Sigma Chemical Company—cat no. H6625) to hippuric acid using a HPLC based assay.
# (§2) The reaction mixture (250 μl) contained 4 μg human CPB (native or mutant) and 0.5 mM Hipp-Asp or Hipp-Glu in 0.025 M Tris-HCL, pH 7.5. Samples were incubated for 5 hr at 37° C. The reactions were terminated by the addition of 250 μl of 80% methanol, 20% distilled water, 0.2% trifluoro acetic acid and the amount of hippuric acid generated was quantified by HPLC.
# (§3) HPLC analysis was carried out using a Hewlett Packard 1090 Series 11 (with diode array) HPLC system. Samples (50 μl) were injected onto a Hichrom Hi-RPB column (25 cm) and separated using a mobile phase of 40% methanol, 60% distilled water, 0.1% trifluoro acetic acid at a flow rate of 1 ml/min. The amount of product (hippuric acid) produced was determined from calibration curves generated with known amounts of hippuric acid (Sigma-H6375). The results are shown in Table 1 and are expressed as the percentage conversion of substrate into product in 5 hr at 37° C. with 4 μg enzyme.
# [2] = Km and kcat of recombinant HCPB against Hipp-Arg, spectrophotometric assay; assay type: biochemical; conditions: Hipp-Arg 0.75-[…]; CPB 1 μg/ml; 37° C.; pH 7.5
# Procedure: Purified human CPB, produced as described in Reference Example 12, was assayed for its ability to convert hippuryl-L-arginine (Hipp-Arg; Sigma) to hippuric acid using a spectrophotometric assay.
# (§4) Measurements were carried out at 37° C. in 0.25 mM Tris HCl buffer, pH 7.5 using 1 cm path length cuvettes in a total volume of 1.0 ml using a Perkin Elmer Lambda 2 spectrophotometer. Km and Vmax values were calculated using the ENZFITTER software programme (Biosoft, Perkin Elmer). Kcat was calculated from Vmax by dividing by the enzyme concentration in the reaction mixture.
# [3] = Conversion of Hipp-Arg to hippuric acid by mutant and native human CPB, HPLC assay (Example 6); assay type: biochemical; conditions: 5 hr at 37° C.; 4 μg enzyme
# Procedure: as §1, §2, §3
# [4] = Conversion of Hipp-Glu to hippuric acid by mutant and native human CPB, HPLC assay (Example 6); assay type: biochemical; conditions: 5 hr at 37° C.; 4 μg enzyme; 0.5 mM substrate
# Procedure: as §1, §2, §3
# [5] = system: LoVo colorectal tumour cells; conditions: 100 μg enzyme added to assay wells containing glutamic acid prodrug
# [6] = HCPB activity of COS-7 cell supernatants against Hipp-Arg (5 h assay); assay type: biochemical; conditions: COS-7 cell supernatant 250 μl
# Procedure: as §4
# For expression in eukaryotic cells, vectors containing genes capable of expressing preHCPB and the prepro sequence were cotransfected into COS-7 cells. COS cells are an African green monkey kidney cell line, CV-1, transformed with an origin-defective SV40 virus and have been widely used for short-term transient expression of a variety of proteins because of their capacity to replicate circular plasmids containing an SV40 origin of replication to very high copy number. There are two widely available COS cell clones, COS-1 and COS-7. The basic methodology for transfection of COS cells is described by Bebbington in Methods: A Companion to Methods in Enzymology (1991) 2, p. 141. […] Cell supernatants (250 μl) were analysed for HCPB activity against Hipp-Arg (5 h assay) as described in Reference Example 3. […]
molecule,measurement,setting,value
B1,Hipp-Asp (% conversion to Hippuric acid),[1],0%
same,Km,[2],180 µM
same,kcat against Hipp-Arg,[2],65 s⁻¹
same,Hipp-Arg (% conversion to Hippuric acid),[3],100%
same,Hipp-Glu (% conversion to Hippuric acid),[4],0%
same,cytotoxicity of the glutamic acid prodrug with enzyme added,[5],does not significantly enhance
B2,Hipp-Arg substrate hydrolysed,[6]; co-transfection with prepro sequence,61%
B3,hydrolysis of the Hipp-Arg substrate,[6]; after activation with trypsin 700 μg/ml,complete hydrolysis
